Assay results published in patent publication US20240218065A1 (SHENGHE CHINA BIOPHARMACEUTICAL, published 2024).

B1: GN15-G (bispecific antibody, human IgG1, kappa)
light 1: QVQLVQSGAEVKKPGASVKVSCKASGYTFTDYEMHWVRQAPGQGLEWMGALDPKTGDTAYSQKFKGRVTLTADKSTSTAYMELSSLTSEDTAVYYCTRFYSYTYWGQGTLVTVSSRTVAAPSVFIFPPSDEQLKSGTASVVCLLNNFYPREAKVQWKVDNALQSGNSQESVTEQDSKDSTYSLSSTLTLSKADYEKHKVYACEVTHQGLSSPVTKSFNRGECGGGGSGGGGSGGGGSGGGGSEVQLVESGGGLVQPGGSLRLSCAASGITFSRSVMGWFRQAPGKLRELVAGITSDDNTDYADSVKGRFTISRDNSKNTLYLQMNSLRAEDTAVYYCNILPDSRLGWGQGTLVTVSS
heavy 1: not shown
heavy 2: QVQLVQSGAEVKKPGASVKVSCKASGYTFTDYEMHWVRQAPGQGLEWMGALDPKTGDTAYSQKFKGRVTLTADKSTSTAYMELSSLTSEDTAVYYCTRFYSYTYWGQGTLVTVSSASTKGPSVFPLAPSSKSTSGGTAALGCLVKDYFPEPVTVSWNSGALTSGVHTFPAVLQSSGLYSLSSVVTVPSSSLGTQTYICNVNHKPSNTKVDKKVEPKSCDKTHTCPPCPGGGGSGGGGSPALLLLLLLRPPATRGITCPPPMSVEHADIWVKSYSLYSRERYICNSGFKRKAGTSSLTECVLNKATNVAHWTTPSLKCIRDPALVHQRPAPPSTVTTAGVTPQPESLSPSGKEGGGGSGGGGSAPELLGGPSVFLFPPKPKDTLMISRTPEVTCVVVDVSHEDPEVKFNWYVDGVEVHNAKTKPREEQYNSTYRVVSVLTVLHQDWLNGKEYKCKVSNKALPAPIEKTISKAKGQPREPQVYTLPPSRDELTKNQVSLTCLVKGFYPSDIAVEWESNGQPENNYKTTPPVLDSDGSFFLASKLTVDKSRWQQGNVFSCSVMHEALHNHYTQKSLSLSPGK
light 2: DVVMTQSPLSLPVTPGEPASISCRSSQSLVHSNRNTYLHWYLQKPGQSPQLLIYKVSNRFSGVPDRFSGSGSGTDFTLKISRVEAEDVGVYYCSQNTHVPPTFGQGTKLEIKRTVAAPSVFIFPPSDEQLKSGTASVVCLLNNFYPREAKVQWKVDNALQSGNSQESVTEQDSKDSTYSLSSTLTLSKADYEKHKVYACEVTHQGLSSPVTKSFNRGEC
notes: Trifunctional antibody against GPC-3 and NKP30 with IL-15 and IL-15Rα sushi between CH1 and CH2; also called constructed antibody GN15-G; multifunctional antibody
B2: DN15-A (bispecific antibody, human IgG1, kappa)
light: EVQLVESGGGLVQPGGSLRLSCAASGITFSRSVMGWFRQAPGKLRELVAGITSDDNTDYADSVKGRFTISRDNSKNTLYLQMNSLRAEDTAVYYCNILPDSRLGWGQGTLVTVSSGGGGSGGGGSGGGGSDIQMTQSPSTLSASVGDRVTITCSASSSVSSMHWYQQKPGKAPKLLIYSTSNLASGVPSRFSGSGSGTEYTLTISSLQPDDFATYYCHHWTSYMYTFGGGTKVEIKRTVAAPSVFIFPPSDEQLKSGTASVVCLLNNFYPREAKVQWKVDNALQSGNSQESVTEQDSKDSTYSLSSTLTLSKADYEKHKVYACEVTHQGLSSPVTKSFNRGEC
heavy 1: not shown
heavy 2: QVQLVQSGSELKKPGASVKVSCKASGYIFTDYAIHWVRQAPGQGLEWMGFINTATGEPTYADDFKGRFVFSLDTSVSTAYLQISSLKAEDTAVYFCTSGVHWGQGTLVTVSSASTKGPSVFPLAPSSKSTSGGTAALGCLVKDYFPEPVTVSWNSGALTSGVHTFPAVLQSSGLYSLSSVVTVPSSSLGTQTYICNVNHKPSNTKVDKKVEPKSCDKTHTCPPCPGGGGSGGGGSPALLLLLLLRPPATRGITCPPPMSVEHADIWVKSYSLYSRERYICNSGFKRKAGTSSLTECVLNKATNVAHWTTPSLKCIRDPALVHQRPAPPSTVTTAGVTPQPESLSPSGKEGGGGSGGGGSAPELLGGPSVFLFPPKPKDTLMISRTPEVTCVVVDVSHEDPEVKFNWYVDGVEVHNAKTKPREEQYNSTYRVVSVLTVLHQDWLNGKEYKCKVSNKALPAPIEKTISKAKGQPREPQVYTLPPSRDELTKNQVSLTCLVKGFYPSDIAVEWESNGQPENNYKTTPPVLDSDGSFFLASKLTVDKSRWQQGNVFSCSVMHEALHNHYTQKSLSLSPGK
notes: Trifunctional antibody against CD24 and NKP30 with IL-15 and IL-15Rα sushi between CH1 and CH2; also called constructed antibody DN15-A; multifunctional antibody

How the values were obtained:
Human-GPC3-His = biological target: T1, Human-GPC3-His (human, UniProt P51654 25-559, limits assumed); assay: ELISA: Human-GPC3-His coated at 0.5 µg/mL, antibody titrated 3-fold from 10 µg/mL, HRP goat anti-human IgG-Fc, OD450-OD570
T1 construct: Coated on the ELISA plate; also called GPC-3 protein; GPC3 protein; not shown: His tag
Method: Human-GPC3-His was diluted to 0.5 μg/mL with PBS buffer at pH 7.4, added into the 96-well ELISA plate at 100 μL per well, coated overnight at 4° C., and blocked with 1% BSA blocking solution for 1 hour. The plate was washed 3 times with PBST, and the constructed antibody was diluted to 10 μg/mL with 0.5% BSA sample diluent as the starting concentration, and then diluted by 3-fold gradient (11 gradients in total) and incubated at 37° C. for 1 h at 100 μL per well. The plate was washed 3 times with PBST, and then HRP-labelled goat anti-human IgG-Fc was diluted with the sample diluent at 1:20000. 100 μL was added into each well, and incubated at room temperature for 1 hour. A negative control (blank well and IgG1 isotype control) and a positive control were set, and the positive control was a GPC-3 and CD3 bispecial antibody from the literature Hs, A, et al. “Engineering a bispecific antibody with a common light chain: Identification and optimization of an anti-CD3 epsilon and anti-GPC3 bispecific antibody, ERY974.” Methods 154 (2019): 10-20. (The GPC-3 and CD3 bispecial antibody sequence consists of SEQ ID No. 22, SEQ ID No. 23, and SEQ ID No. 24). The plate was washed 4 times with PBST, and 100 μL of TMB substrate was added into each well, and incubated at room temperature without light for 10 minutes. 100 μL of 1 M HCl solution was added into each well to terminate the color development reaction. The absorbance value of each well in the 96-well plate was determined by selecting the wavelength of 450 nm and the reference wavelength of 570 nm on a multifunctional enzyme marker, and the absorbance value (OD)=OD₄₅₀ₙₘ−OD₅₇₀ₙₘ. The logarithm of the concentration of the constructed antibody was taken as the abscissa, and the measured absorbance value of each well was taken as the ordinate, and the Sigmoidaldose-response (Variable Slope) method (GraphPad Prism software, GraphPad Software, San Diego, California) was selected for nonlinear regression to obtain the binding curve of the target antibody to the GPC-3 protein.

[1] = biological target: T2, Human-NKP30-His (Kactus, cat: NKP-HM430) (human, UniProt O14931 19-138, limits assumed); assay: ELISA: Human-NKP30-His coated, antibody titrated 3-fold from 10 µg/mL, HRP goat anti-human IgG-Fc, OD450-OD570
T2 construct: also called NKP30 protein; NKP30-his protein; not shown: His tag
T2 sequence (looked up): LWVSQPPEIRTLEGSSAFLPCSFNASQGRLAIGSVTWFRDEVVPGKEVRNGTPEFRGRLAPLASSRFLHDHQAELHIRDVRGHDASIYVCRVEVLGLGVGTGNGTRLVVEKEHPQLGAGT
Method: (§1) Human-NKP30-His (Kactus, cat: NKP-HM430) was diluted to 0.5 g/mL with PBS buffer at pH 7.4, added into the 96-well ELISA plate at 100 μL per well, coated overnight at 4° C., and blocked with 1% BSA blocking solution for 1 hour. The plate was washed 3 times with PBST, and the constructed antibodies were diluted to 10 μg/mL with 0.5% BSA sample diluent as the starting concentration, and then diluted by 3-fold gradient (11 gradients in total). A negative control (blank well and IgG1 isotype control) and a positive control were set, and the positive control was a NKP30 humanized antibody (sequence shown in SEQ ID No. 28), and incubated at 37° C. for 1 h at 100 μL per well. The plate was washed 3 times with PBST, and then HRP-labelled goat anti-human IgG-Fc was diluted with the sample diluent at 1:20000. 100 μL was added into each well, and incubated at room temperature for 1 hour. The plate was washed 4 times with PBST, and 100 μL of TMB substrate was added into each well, and incubated at room temperature without light for 10 minutes. 100 μL of 1 M HCl solution was added into each well to terminate the color development reaction. The absorbance value of each well in the 96-well plate was determined by selecting the wavelength of 450 nm and the reference wavelength of 570 nm on a multifunctional enzyme marker, and the absorbance value (OD)=OD₄₅₀ₙₘ−OD₅₇₀ₙₘ. The logarithm of the concentration of the constructed antibody was taken as the abscissa, and the measured absorbance value of each well was taken as the ordinate, and the Sigmoidaldose-response (Variable Slope) method (GraphPad Prism software, GraphPad Software, San Diego, California) was selected for nonlinear regression to obtain the binding curve of the target antibody to NKP30.

[2] = biological target: T2, Human-NKP30-His (Kactus, cat: NKP-HM430); assay: ELISA: Human-NKP30-His coated at 0.2 µg/mL, antibody titrated 3-fold from 10 µg/mL (7 points), HRP goat anti-human IgG-Fc, OD450-OD570
Method: as §1, with “diluted to 0.2 μg/mL with PBS” for “diluted to 0.5 g/mL with PBS”, “the constructed expressing antibody was diluted to” for “the constructed antibodies were diluted to”, “3-fold gradient (7 gradients in” for “3-fold gradient (11 gradients in”, “control was the NKP30 humanized” for “control was a NKP30 humanized”

[3] = biological target: T3, huCD24-humanFC (Acro, cat: CD4-H5254) (human, UniProt P25063 27-59); assay: Bridging ELISA: huCD24-humanFC coated at 0.3 µg/mL, antibody titrated 3-fold from 20 µg/mL, then NKP30-his at 0.3 µg/mL, HRP anti-His antibody, OD450-OD570
T3 construct: also called CD24 protein; not shown: human Fc
T3 chain (looked up): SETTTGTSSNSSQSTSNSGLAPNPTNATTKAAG
Method: The huCD24-humanFC (Acro, cat: CD4-H5254) was diluted to 0.3 μg/mL with PBS buffer at pH 7.4, added into the 96-well ELISA plate at 100 μL per well, coated overnight at 4° C., and blocked with 1% BSA blocking solution for 1 hour. The plate was washed 3 times with PBST, and the purified antibody was diluted to 20 μg/mL with 0.5% BSA sample diluent as the starting concentration, and then diluted by 3-fold gradient (11 gradients in total). An irrelevant antibody was set as the negative control and incubated at 37° C. for 1 h at 50 μL per well. The plate was washed 3 times with PBST, and the NKP30-his protein was diluted to 0.3 μg/mL. 100 μL was added into each well, and incubated at room temperature for 1 h. The plate was washed 3 times with PBST, and then HRP-labelled his antibody was diluted with the sample diluent at 1:5000. 100 μL was added into each well, and incubated at room temperature for 1 h. The plate was washed 4 times with PBST, 100 μL of TMB substrate was added into each well, and incubated at room temperature without light for 10 min. 100 μL of 1 M HCl solution was added into each well to terminate the color development reaction. The absorbance value of each well in the 96-well plate was determined by selecting the wavelength of 450 nm and the reference wavelength of 570 nm on a multifunctional enzyme marker, and the absorbance value (OD)=OD₄₅₀ₙₘ−OD₅₇₀ₙₘ. The logarithm of antibody concentration was taken as the abscissa, and the measured absorbance value of each well was taken as the ordinate, and the Sigmoidaldose-response (Variable Slope) method (GraphPad Prism software, GraphPad Software, San Diego, California) was selected for nonlinear regression to obtain the binding curve of the target antibody to CD24 and NKP30 proteins at both ends.

T1 sequence (P51654 25-559 limits assumed): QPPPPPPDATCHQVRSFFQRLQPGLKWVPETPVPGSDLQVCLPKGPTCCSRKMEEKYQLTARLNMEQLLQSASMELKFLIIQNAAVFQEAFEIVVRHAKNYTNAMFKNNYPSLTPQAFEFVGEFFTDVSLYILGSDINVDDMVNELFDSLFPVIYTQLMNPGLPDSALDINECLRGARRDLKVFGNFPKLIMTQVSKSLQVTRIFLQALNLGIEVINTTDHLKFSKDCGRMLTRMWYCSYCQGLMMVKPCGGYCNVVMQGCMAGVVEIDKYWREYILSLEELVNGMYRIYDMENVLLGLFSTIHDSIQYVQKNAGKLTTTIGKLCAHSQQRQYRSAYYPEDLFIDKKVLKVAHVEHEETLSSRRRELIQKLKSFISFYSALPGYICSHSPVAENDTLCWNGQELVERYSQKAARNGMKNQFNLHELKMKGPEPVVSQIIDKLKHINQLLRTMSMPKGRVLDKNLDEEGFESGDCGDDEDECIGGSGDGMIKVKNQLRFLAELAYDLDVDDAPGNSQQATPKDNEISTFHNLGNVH

Row | Binder | EC50 (read off the curve) (Human-GPC3-His) | EC50 (read off the curve) [1] | binding result [2] | EC50 (read off the curve) [3]
1 | B1 | ~0.01 µg/mL | ~0.03 µg/mL |  | 
2 | B2 |  |  | binds | ~0.08 µg/mL
